# B1: 抗HBsAg单克隆抗体7E5 (antibody, V domains shown)
# VH: EVQLQQSGPELVKPGASVKMSCKASGYTFTARGYNWVRQSHGKSLEWIGGINCRPTAMSPEDLVKDKATLTVDKSSNTVYMEFRSLTLEDSAIYFCARRECPINQGDYWGQGTIFTVSS
# VL: EIVLTQSPALMAASPGEKVTITCGCARNTIWNNVGWYQQKSETSPKPWIYWASLFGKGVPVRFSGSGSGTSYSLTISSMEAEDAATYYCQDIQENWTPFGAGTKLELK
# Molecular target: HBV表面抗原蛋白 (HBsAg) (Hepatitis B virus)
# Assay: SPR, Biacore 3000; 7E5 captured by AHC on a CM5 chip, HBsAg as analyte in 2-fold dilutions from 40 nM to 0 nM
binder,measurement,value
B1,Kd,21.5 nM
same,koff,0.000445 s⁻¹
same,kon,20700 M⁻¹ s⁻¹
